{"source": "patent US20230002496A1", "about": "(STAIDSON BEIJING BIOPHARMACEUTICALS, published 2023)", "binders": {"B1": {"name": "E35-scFv LS31L (scFv, V domains shown)", "VH": "QMQLVQSGAEVKKPGASVKVSCKVSGYTLTELSIHWVRQAPGKGLEWMGGFDPEDGETIYAQKFQGRVTMTGDTSTDTAYLELSSLRSEDTALYYCATGRYTSLATTYGFDYWGQGTLVTVSS", "VL": "EIVMTQSPATLSLSPGERATLSCRASQSVSLYLAWYQQKPGQAPRLLIYGASSRATGIPDRFSGSGSGTDFTLTISRLEPEDFAVYYCQQYDNWPYTFGQGTKLEIK"}, "B2": {"name": "E35-scFv (scFv, V domains shown)", "VH": "B1 VH", "VL": "B1 VL with L31S"}, "B3": {"name": "E35-scFv LS28Q (scFv, V domains shown)", "VH": "B1 VH", "VL": "B1 VL with S28Q, L31S"}, "B4": {"name": "E35-scFv LY32A (scFv, V domains shown)", "VH": "B1 VH", "VL": "B1 VL with L31S, Y32A"}, "B5": {"name": "E35-scFv LS30V (scFv, V domains shown)", "VH": "B1 VH", "VL": "B1 VL with S30V, L31S"}, "B6": {"name": "E35-scFv LS31G (scFv, V domains shown)", "VH": "B1 VH", "VL": "B1 VL with L31G"}, "B7": {"name": "E35-scFv LS28E (scFv, V domains shown)", "VH": "B1 VH", "VL": "B1 VL with S28E, L31S"}, "B8": {"name": "E35-scFv LS31I (scFv, V domains shown)", "VH": "B1 VH", "VL": "B1 VL with L31I"}, "B9": {"name": "E35-scFv LY32L (scFv, V domains shown)", "VH": "B1 VH", "VL": "B1 VL with L31S, Y32L"}, "B10": {"name": "E35-scFv LS31W (scFv, V domains shown)", "VH": "B1 VH", "VL": "B1 VL with L31W"}, "B11": {"name": "E35-scFv LY32C (scFv, V domains shown)", "VH": "B1 VH", "VL": "B1 VL with L31S, Y32C"}, "B12": {"name": "E35-scFv LY32T (scFv, V domains shown)", "VH": "B1 VH", "VL": "B1 VL with L31S, Y32T"}, "B13": {"name": "E35-scFv LY32V (scFv, V domains shown)", "VH": "B1 VH", "VL": "B1 VL with L31S, Y32V"}, "B14": {"name": "E35-scFv LS28T (scFv, V domains shown)", "VH": "B1 VH", "VL": "B1 VL with S28T, L31S"}, "B15": {"name": "E35-scFv LS30A (scFv, V domains shown)", "VH": "B1 VH", "VL": "B1 VL with S30A, L31S"}, "B16": {"name": "E35-scFv LS30N (scFv, V domains shown)", "VH": "B1 VH", "VL": "B1 VL with S30N, L31S"}, "B17": {"name": "E35-scFv LS30T (scFv, V domains shown)", "VH": "B1 VH", "VL": "B1 VL with S30T, L31S"}, "B18": {"name": "E35-scFv LS30L (scFv, V domains shown)", "VH": "B1 VH", "VL": "B1 VL with S30L, L31S"}, "B19": {"name": "E35-scFv LY32M (scFv, V domains shown)", "VH": "B1 VH", "VL": "B1 VL with L31S, Y32M"}, "B20": {"name": "E35-scFv LS30R (scFv, V domains shown)", "VH": "B1 VH", "VL": "B1 VL with S30R, L31S"}, "B21": {"name": "E35-scFv LS30Y (scFv, V domains shown)", "VH": "B1 VH", "VL": "B1 VL with S30Y, L31S"}, "B22": {"name": "E35-scFv LS30E (scFv, V domains shown)", "VH": "B1 VH", "VL": "B1 VL with S30E, L31S"}, "B23": {"name": "E35-scFv LS28L (scFv, V domains shown)", "VH": "B1 VH", "VL": "B1 VL with S28L, L31S"}, "B24": {"name": "E35-scFv LS30F (scFv, V domains shown)", "VH": "B1 VH", "VL": "B1 VL with S30F, L31S"}, "B25": {"name": "E35-scFv LY32Q (scFv, V domains shown)", "VH": "B1 VH", "VL": "B1 VL with L31S, Y32Q"}, "B26": {"name": "E35-scFv LY32F (scFv, V domains shown)", "VH": "B1 VH", "VL": "B1 VL with L31S, Y32F"}, "B27": {"name": "E35-scFv LY32G (scFv, V domains shown)", "VH": "B1 VH", "VL": "B1 VL with L31S, Y32G"}, "B28": {"name": "E35-scFv LS31E (scFv, V domains shown)", "VH": "B1 VH", "VL": "B1 VL with L31E"}, "B29": {"name": "E35-scFv LS28P (scFv, V domains shown)", "VH": "B1 VH", "VL": "B1 VL with S28P, L31S"}, "B30": {"name": "E35-scFv LS28W (scFv, V domains shown)", "VH": "B1 VH", "VL": "B1 VL with S28W, L31S"}, "B31": {"name": "E35-scFv LS28A (scFv, V domains shown)", "VH": "B1 VH", "VL": "B1 VL with S28A, L31S"}, "B32": {"name": "E35-scFv LS28F (scFv, V domains shown)", "VH": "B1 VH", "VL": "B1 VL with S28F, L31S"}, "B33": {"name": "E35-scFv LS28I (scFv, V domains shown)", "VH": "B1 VH", "VL": "B1 VL with S28I, L31S"}, "B34": {"name": "E35-scFv LS28V (scFv, V domains shown)", "VH": "B1 VH", "VL": "B1 VL with S28V, L31S"}, "B35": {"name": "E35-scFv LS31D (scFv, V domains shown)", "VH": "B1 VH", "VL": "B1 VL with L31D"}, "B36": {"name": "E35-scFv LS30C (scFv, V domains shown)", "VH": "B1 VH", "VL": "B1 VL with S30C, L31S"}, "B37": {"name": "E35-scFv LS30M (scFv, V domains shown)", "VH": "B1 VH", "VL": "B1 VL with S30M, L31S"}, "B38": {"name": "E35-scFv LS28K (scFv, V domains shown)", "VH": "B1 VH", "VL": "B1 VL with S28K, L31S"}, "B39": {"name": "E35-scFv LS28H (scFv, V domains shown)", "VH": "B1 VH", "VL": "B1 VL with S28H, L31S"}, "B40": {"name": "E35-scFv LS28R (scFv, V domains shown)", "VH": "B1 VH", "VL": "B1 VL with S28R, L31S"}, "B41": {"name": "E35-scFv LS30W (scFv, V domains shown)", "VH": "B1 VH", "VL": "B1 VL with S30W, L31S"}, "B42": {"name": "E35-scFv LS30G (scFv, V domains shown)", "VH": "B1 VH", "VL": "B1 VL with S30G, L31S"}, "B43": {"name": "E35-scFv LY32W (scFv, V domains shown)", "VH": "B1 VH", "VL": "B1 VL with L31S, Y32W"}, "B44": {"name": "E35-scFv LS30K (scFv, V domains shown)", "VH": "B1 VH", "VL": "B1 VL with S30K, L31S"}}, "note": "Where a chain is given by its changes, count along the chain named."}
{"molecular_target": "T1, human GM-CSFRα, full length on cells (human, UniProt P15509 23-400)", "T1 sequence": "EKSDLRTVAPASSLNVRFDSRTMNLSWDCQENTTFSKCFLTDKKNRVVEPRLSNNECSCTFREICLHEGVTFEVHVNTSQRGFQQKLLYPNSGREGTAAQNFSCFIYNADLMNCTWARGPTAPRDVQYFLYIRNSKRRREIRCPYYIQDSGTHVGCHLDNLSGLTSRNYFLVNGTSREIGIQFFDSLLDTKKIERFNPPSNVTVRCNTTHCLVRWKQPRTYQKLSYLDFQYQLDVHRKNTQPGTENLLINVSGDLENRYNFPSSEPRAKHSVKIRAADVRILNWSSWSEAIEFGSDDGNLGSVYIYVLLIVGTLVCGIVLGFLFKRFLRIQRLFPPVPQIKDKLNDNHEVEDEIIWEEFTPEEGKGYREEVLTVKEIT", "experiment": "cell-based or functional assay", "units": {"IC50, TF-1 cell proliferation": "µg/mL"}}
{"binder": "B1", "IC50, TF-1 cell proliferation": 0.235}
{"binder": "B2", "IC50, TF-1 cell proliferation": 0.12}
{"binder": "B3", "IC50, TF-1 cell proliferation": 0.154}
{"binder": "B4", "IC50, TF-1 cell proliferation": 1.35}
{"binder": "B5", "IC50, TF-1 cell proliferation": 0.124}
{"binder": "B6", "IC50, TF-1 cell proliferation": 0.279}
{"binder": "B7", "IC50, TF-1 cell proliferation": 0.111}
{"binder": "B8", "IC50, TF-1 cell proliferation": 0.681}
{"binder": "B9", "IC50, TF-1 cell proliferation": 0.07}
{"binder": "B10", "IC50, TF-1 cell proliferation": 0.649}
{"binder": "B11", "IC50, TF-1 cell proliferation": 1.9}
{"binder": "B12", "IC50, TF-1 cell proliferation": 0.51}
{"binder": "B13", "IC50, TF-1 cell proliferation": 1.23}
{"binder": "B14", "IC50, TF-1 cell proliferation": 0.088}
{"binder": "B15", "IC50, TF-1 cell proliferation": 0.078}
{"binder": "B16", "IC50, TF-1 cell proliferation": 0.132}
{"binder": "B17", "IC50, TF-1 cell proliferation": 0.092}
{"binder": "B18", "IC50, TF-1 cell proliferation": 0.069}
{"binder": "B19", "IC50, TF-1 cell proliferation": 0.42}
{"binder": "B20", "IC50, TF-1 cell proliferation": 0.088}
{"binder": "B21", "IC50, TF-1 cell proliferation": 0.082}
{"binder": "B22", "IC50, TF-1 cell proliferation": 0.1}
{"binder": "B23", "IC50, TF-1 cell proliferation": 0.067}
{"binder": "B24", "IC50, TF-1 cell proliferation": 0.16}
{"binder": "B25", "IC50, TF-1 cell proliferation": 0.87}
{"binder": "B26", "IC50, TF-1 cell proliferation": 0.21}
{"binder": "B27", "IC50, TF-1 cell proliferation": 1.35}
{"binder": "B28", "IC50, TF-1 cell proliferation": 0.832}
{"binder": "B29", "IC50, TF-1 cell proliferation": 0.089}
{"binder": "B30", "IC50, TF-1 cell proliferation": 0.06}
{"binder": "B31", "IC50, TF-1 cell proliferation": 0.116}
{"binder": "B32", "IC50, TF-1 cell proliferation": 0.1}
{"binder": "B33", "IC50, TF-1 cell proliferation": 0.091}
{"binder": "B34", "IC50, TF-1 cell proliferation": 0.104}
{"binder": "B35", "IC50, TF-1 cell proliferation": 1.34}
{"binder": "B36", "IC50, TF-1 cell proliferation": 0.221}
{"binder": "B37", "IC50, TF-1 cell proliferation": 0.073}
{"binder": "B38", "IC50, TF-1 cell proliferation": 0.082}
{"binder": "B39", "IC50, TF-1 cell proliferation": 0.058}
{"binder": "B40", "IC50, TF-1 cell proliferation": 0.077}
{"binder": "B41", "IC50, TF-1 cell proliferation": 0.071}
{"binder": "B42", "IC50, TF-1 cell proliferation": 0.092}
{"binder": "B43", "IC50, TF-1 cell proliferation": 1.17}
{"binder": "B44", "IC50, TF-1 cell proliferation": 0.083}
